Data reported in US20090215683A1 (ONCOTHERAPY SCIENCE, published 2009).
Values belong to the binder of their own block, whether it stands above or below them.

Tests used:
[1] = molecular target: T1, kinetocore associated 2 (KNTC2), endogenous protein of LC319 lung-cancer cells (human, UniProt O14777 1-642); test: anti-Flag immunoprecipitation from transfected LC319 cells, immunoblot for KNTC2 (FIG. 2C)
T1 construct: Endogenous protein in lysates of the human lung-cancer cell line LC319; Seen as a 75-kDa band and identified by MALDI-TOF mass spectrometry; also called endogenous KNTC2
T1 sequence: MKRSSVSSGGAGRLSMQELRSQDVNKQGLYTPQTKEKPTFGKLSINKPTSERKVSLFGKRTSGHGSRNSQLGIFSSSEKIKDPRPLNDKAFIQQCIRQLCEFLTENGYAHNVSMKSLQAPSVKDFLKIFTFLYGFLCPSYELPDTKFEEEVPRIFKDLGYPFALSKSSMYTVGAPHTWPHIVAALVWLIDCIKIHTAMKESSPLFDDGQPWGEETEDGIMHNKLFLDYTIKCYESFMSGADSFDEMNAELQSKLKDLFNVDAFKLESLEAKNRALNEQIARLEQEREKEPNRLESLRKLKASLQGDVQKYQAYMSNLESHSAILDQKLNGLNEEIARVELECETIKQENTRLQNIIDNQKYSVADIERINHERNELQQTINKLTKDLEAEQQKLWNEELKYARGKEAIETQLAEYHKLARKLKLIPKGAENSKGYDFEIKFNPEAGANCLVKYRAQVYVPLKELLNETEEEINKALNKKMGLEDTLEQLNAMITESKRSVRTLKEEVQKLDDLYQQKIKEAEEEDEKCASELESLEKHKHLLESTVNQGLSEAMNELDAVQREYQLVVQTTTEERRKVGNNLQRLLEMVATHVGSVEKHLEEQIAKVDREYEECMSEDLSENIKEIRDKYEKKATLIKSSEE
Procedure: (§1) Cell extracts from lung-cancer cell line LC319, transfected with plasmids expressing eleven deletion-constructs of CDCA1 were pre-cleared by incubation at 4° C. for 1 hour with 100 μl of protein G-agarose beads in final volumes of 2 ml of immunoprecipitation buffer (0.5% NP-40, 50 mM Tris-HCl, 150 mM NaCl) in the presence of proteinase inhibitor. After centrifugation at 1,000 rpm for 5 min at 4° C., the supernatants were incubated at 4° C. with anti-FLAG M2 agarose for 2 hours. After the beads were collected from each sample by centrifugation at 5,000 rpm for 2 min and washed six times with 1 ml of immunoprecipitation buffer, the washed beads were re-suspended in 50 μl of Laemmli sample buffer and boiled for 5 min before the proteins were separated on 10% SDS PAGE gels. Immunoblot was performed using KNTC2 polyclonal antibody (Abcom, Inc.) and anti-FLAG M2 monoclonal antibody respectively (Sigma-Aldrich Co.).

[2] = molecular target: T1, kinetocore associated 2 (KNTC2), …; test: anti-Flag immunoprecipitation (FIG. 2C); also immunoprecipitation with anti-KNTC2 polyclonal antibody (FIG. 5A)
Procedure: as §1

[3] = molecular target: T1, kinetocore associated 2 (KNTC2), …; test: immunoprecipitation with KNTC2 polyclonal antibody from LC319 cells transfected with pCAGGSn3Fc-CDCA1, anti-FLAG M2 immunoblot
Procedure: (f) Identification of CDCA1-associated Proteins: Cell extracts from lung-cancer cell line LC319 were pre-cleared by incubation at 4° C. for 1 hour with 50 μl of protein A and G-agarose beads, in final volumes of 2 ml of immunoprecipitation buffer (0.5% NP-40, 50 mM Tris-HCl, 150 mM NaCl) in the presence of proteinase inhibitor. After centrifugation at 1,000 rpm for 5 min at 4° C., the supernatants were incubated at 4° C. with anti-CDCA1 polyclonal antibody, anti-KNTC2 polyclonal antibody, or normal rabbit IgG for 2 hours. After incubation at 4° C. for 1 hour with 50 μl of protein A and G-agarose beads, the beads were collected from each sample by centrifugation at 5,000 rpm for 2 min and washed six times with 1 ml of immunoprecipitation buffer, and the washed beads were re-suspended in 50 μl of Laemmli sample buffer and boiled for 5 min before the proteins were separated on 5-10% SDS PAGE gels (BIO RAD). After electrophoresis, the gels were stained with silver. […] The nucleotide sequence of each cDNA clone was determined with an ABI Prism 3700 DNA sequencer (Applied Biosystems, Foster City, Calif.), using T3, T7, or synthetic oligonucleotide primers according to the manufacturer's instructions. […]

[4] = molecular target: T1, kinetocore associated 2 (KNTC2), …; test: anti-Flag immunoprecipitation from transfected LC319 cells, immunoblot for KNTC2 (FIG. 2D)
Procedure: as §1

binding result [1]: no binding
B1: CDCA1 149-306 deletion construct with C-terminal FLAG sequence (other)
chain: ADKMQQLNAAHQEALMKLERLDSVPVEEQEEFKQLSDGIQELQQSLNQDFHQKTIVLQEGNSQKKSNISEKTKRLNELKLLVVSLKEIQESLKTKIVDSPEKLKNYKEKMKDTVQKLKNARQEVVEKYEIYGDSVDCLPSCQLEVQLYQKKIQDLSDN
notes: Expressed by transfection in LC319 cells; also called control; not shown: C-terminal FLAG tag of the pCAGGS vector

binding result [1]: no binding
B2: CDCA1 1-148 deletion construct with C-terminal FLAG sequence (other)
chain: METLSFPRYNVAEIVIHIRNKILTGADGKNLTKNDLYPNPKPEVLHMIYMRALQIVYGIRLEHFYMMPVNSEVMYPHLMEGFLPFSNLVTHLDSFLPICRVNDFETADILCPKAKRTSRFLSGIINFIHFREACRETYMEFLWQYKSS
notes: Expressed by transfection in LC319 cells; not shown: C-terminal FLAG tag of the pCAGGS vector

binding result [2]: binds
B3: CDCA1 200-464 deletion construct with C-terminal FLAG sequence (other)
chain: QKTIVLQEGNSQKKSNISEKTKRLNELKLLVVSLKEIQESLKTKIVDSPEKLKNYKEKMKDTVQKLKNARQEVVEKYEIYGDSVDCLPSCQLEVQLYQKKIQDLSDNREKLASILKESLNLEDQIESDESELKKLKTEENSFKRLMIVKKEKLATAQFKINKKHEDVKQYKRTVIEDCNKVQEKRGAVYERVTTINQEIQKIKLGIQQLKDAAEREKLKSQEIFLNLKTALEKYHDGIEKAAEDSYAKIDEKTAELKRKMFKMST
notes: Expressed by transfection in LC319 cells; also called dominant-negative fragment of CDCA1; not shown: C-terminal FLAG tag of the pCAGGS vector

binding result [3]: binds
B4: CDCA1 1-464 (full length), exogenous, expressed from pCAGGSn3Fc-CDCA1 in LC319 cells (other, not shown: small tags and cut ends)
chain: METLSFPRYNVAEIVIHIRNKILTGADGKNLTKNDLYPNPKPEVLHMIYMRALQIVYGIRLEHFYMMPVNSEVMYPHLMEGFLPFSNLVTHLDSFLPICRVNDFETADILCPKAKRTSRFLSGIINFIHFREACRETYMEFLWQYKSSADKMQQLNAAHQEALMKLERLDSVPVEEQEEFKQLSDGIQELQQSLNQDFHQKTIVLQEGNSQKKSNISEKTKRLNELKLLVVSLKEIQESLKTKIVDSPEKLKNYKEKMKDTVQKLKNARQEVVEKYEIYGDSVDCLPSCQLEVQLYQKKIQDLSDNREKLASILKESLNLEDQIESDESELKKLKTEENSFKRLMIVKKEKLATAQFKINKKHEDVKQYKRTVIEDCNKVQEKRGAVYERVTTINQEIQKIKLGIQQLKDAAEREKLKSQEIFLNLKTALEKYHDGIEKAAEDSYAKIDEKTAELKRKMFKMST
notes: It is treated as the same molecule here; also called exogenous CDCA1

binding result [4]: no binding
B5: CDCA1 277-367 deletion construct with C-terminal FLAG sequence (other)
chain: EIYGDSVDCLPSCQLEVQLYQKKIQDLSDNREKLASILKESLNLEDQIESDESELKKLKTEENSFKRLMIVKKEKLATAQFKINKKHEDVK
notes: as for B2

binding result [4]: no binding
B6: CDCA1 319-367 deletion construct with C-terminal FLAG sequence (other)
chain: NLEDQIESDESELKKLKTEENSFKRLMIVKKEKLATAQFKINKKHEDVK
notes: as for B2
